Our source for the ratio to parent values is publication PMC6959358.

What all share (experiment): co-immunoprecipitation (DYK-antibody beads) with immunoblot quantification
One assay deals with PKA. The following applies: TnT-DYK expressed in HEK cells, immobilized on DYK-antibody beads, incubated with healthy control iPSC-CM lysate; n = 4; DYK negative control subtracted …; parent: est. 1.0; read off a plot.
The next assay has as its target tropomyosin (UniProt P09493). The following applies: TnT-DYK expressed in HEK cells, immobilized on DYK-antibody beads, incubated with healthy control iPSC-CM lysate; n = 5; DYK negative control subtracted …; parent: est. 1.0; read off a plot.
The next assay addresses troponin C (UniProt P63316). As to conditions: TnT-DYK expressed in HEK cells, immobilized on DYK-antibody beads, incubated with healthy control iPSC-CM lysate; n = 6; DYK negative control subtracted …; parent: est. 1.0; read off a plot.
The target of another assay is troponin I (UniProt P19429). As to conditions: TnT-DYK expressed in HEK cells, immobilized on DYK-antibody beads, incubated with healthy control iPSC-CM lysate; n = 5; DYK negative control subtracted …; parent: est. 1.0; read off a plot.
Chain of UniProt P19429 (P19429 whole entry): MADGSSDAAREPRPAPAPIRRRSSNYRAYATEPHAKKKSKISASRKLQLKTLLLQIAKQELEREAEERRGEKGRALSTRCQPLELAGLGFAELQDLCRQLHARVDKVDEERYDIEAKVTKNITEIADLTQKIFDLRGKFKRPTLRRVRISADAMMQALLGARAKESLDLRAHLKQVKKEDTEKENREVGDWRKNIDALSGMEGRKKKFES

Chain of UniProt P09493 (P09493 whole entry): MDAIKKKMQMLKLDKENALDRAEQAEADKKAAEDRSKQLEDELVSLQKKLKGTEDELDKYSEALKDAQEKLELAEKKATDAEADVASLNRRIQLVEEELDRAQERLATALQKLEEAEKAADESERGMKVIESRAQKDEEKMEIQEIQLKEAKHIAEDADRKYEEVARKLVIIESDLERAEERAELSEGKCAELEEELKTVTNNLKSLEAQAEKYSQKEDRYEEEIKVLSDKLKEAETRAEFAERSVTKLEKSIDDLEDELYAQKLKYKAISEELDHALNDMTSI

Turning to “TnT-WT-DYK (human cardiac troponin T, wild type, flag (DYK)-tagged) R173W”, the ratio to parent is 0.42 in the assay with PKA, 0.57 in the assay with tropomyosin, 0.78 with troponin C and 0.73 in the assay with troponin I.
